In publication PMC10096250, “Combined action of albumin and heparin regulates lipoprotein lipase oligomerization, stability, and ligand interactions” (PLOS ONE, 2023):

B2: Bovine lipoprotein lipase (enzyme, UniProt P11151 29-478, looked up)
chain: DRITGGKDFRDIESKFALRTPEDTAEDTCHLIPGVTESVANCHFNHSSKTFVVIHGWTVTGMYESWVPKLVAALYKREPDSNVIVVDWLSRAQQHYPVSAGYTKLVGQDVAKFMNWMADEFNYPLGNVHLLGYSLGAHAAGIAGSLTNKKVNRITGLDPAGPNFEYAEAPSRLSPDDADFVDVLHTFTRGSPGRSIGIQKPVGHVDIYPNGGTFQPGCNIGEALRVIAERGLGDVDQLVKCSHERSVHLFIDSLLNEENPSKAYRCNSKEAFEKGLCLSCRKNRCNNMGYEINKVRAKRSSKMYLKTRSQMPYKVFHYQVKIHFSGTESNTYTNQAFEISLYGTVAESENIPFTLPEVSTNKTYSFLLYTEVDIGELLMLKLKWISDSYFSWSNWWSSPGFDIGKIRVKAGETQKKVIFCSREKMSYLQKGKSPVIFVKCHDKSLNRKSG
notes: lipoprotein lipase (LPL), bovine, purified from bovine milk; In the RICS experiments 10 nM of the LPL carried ATTO610 (NHS ester labelling) and 190 nM was unlabelled; it says that most experiments were done with bovine LPL; also called bLPL; bovine LPL; source: purified from bovine milk

How the values were obtained:
[1] = biological target: B2; assay: cell-based or functional assay
Human serum albumin = biological target: T1, Human serum albumin (human, UniProt P02768 25-609); assay: SPR; nANGPTL4 immobilised; HSA at various concentrations flowed over; plateau values plotted against HSA concentration after subtracting non-specific binding; details: both partners purified
T1 construct: serum albumin, human; also called HSA

Bovine serum albumin [2] = biological target: T2, Bovine serum albumin (bovine, UniProt P02769 25-607); assay: ITC; 752 μM BSA in the syringe titrated (38 injections) into 1.695 μM bLPL with 10 IU/ml heparin; 20 mM HEPES, 150 mM NaCl, pH 7.4; 25°C; apparent KD of the initial binding phase; details: both partners purified
T2 construct: serum albumin, bovine; also called BSA; source: bought: Sigma Aldrich (#A7906)

Bovine serum albumin [3] = biological target: T2, Bovine serum albumin; assay: not stated; equilibrium dissociation constant of the LPL-albumin complex as given in the introduction; experiment not named
[4] = biological target: B2

T2 sequence (P02769 25-607): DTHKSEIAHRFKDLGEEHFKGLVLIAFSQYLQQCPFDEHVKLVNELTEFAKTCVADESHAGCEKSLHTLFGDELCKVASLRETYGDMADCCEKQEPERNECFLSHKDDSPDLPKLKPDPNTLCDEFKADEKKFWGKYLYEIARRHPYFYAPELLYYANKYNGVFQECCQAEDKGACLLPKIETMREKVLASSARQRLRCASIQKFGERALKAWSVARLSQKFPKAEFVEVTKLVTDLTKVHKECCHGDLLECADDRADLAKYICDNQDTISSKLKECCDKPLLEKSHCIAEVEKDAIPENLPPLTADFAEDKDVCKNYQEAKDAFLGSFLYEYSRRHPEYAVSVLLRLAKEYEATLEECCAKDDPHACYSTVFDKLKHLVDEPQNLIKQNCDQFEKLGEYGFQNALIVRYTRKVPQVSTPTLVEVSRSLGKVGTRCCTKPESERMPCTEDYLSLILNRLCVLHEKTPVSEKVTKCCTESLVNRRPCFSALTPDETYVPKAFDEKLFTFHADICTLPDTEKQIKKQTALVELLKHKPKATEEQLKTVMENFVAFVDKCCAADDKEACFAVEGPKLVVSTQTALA
T1 sequence (P02768 25-609): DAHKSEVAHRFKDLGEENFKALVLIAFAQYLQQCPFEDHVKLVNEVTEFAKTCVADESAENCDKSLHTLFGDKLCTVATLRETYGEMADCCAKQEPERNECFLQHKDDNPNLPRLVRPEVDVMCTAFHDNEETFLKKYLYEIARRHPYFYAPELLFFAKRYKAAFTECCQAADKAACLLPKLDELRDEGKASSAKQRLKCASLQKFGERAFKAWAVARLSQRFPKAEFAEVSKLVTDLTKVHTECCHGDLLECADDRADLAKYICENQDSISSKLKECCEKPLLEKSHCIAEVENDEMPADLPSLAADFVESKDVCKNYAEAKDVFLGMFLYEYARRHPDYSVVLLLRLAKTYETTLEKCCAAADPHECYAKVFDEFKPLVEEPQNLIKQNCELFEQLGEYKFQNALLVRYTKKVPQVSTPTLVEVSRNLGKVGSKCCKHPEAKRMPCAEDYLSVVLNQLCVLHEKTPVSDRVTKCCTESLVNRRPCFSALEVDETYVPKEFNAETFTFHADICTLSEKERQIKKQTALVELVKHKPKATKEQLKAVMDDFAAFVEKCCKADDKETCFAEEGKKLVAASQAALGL

B1: Recombinant N-terminal domain of ANGPTL4 (nANGPTL4^26-184) (domain or fragment, UniProt Q9BY76 26-184, looked up)
chain: GPVQSKSPRFASWDEMNVLAHGLLQLGQGLREHAERTRSQLSALERRLSACGSACQGTEGSTDLPLAPESRVDPEVLHSLQTQLKAQNSRIQQLFHKVAQQQRHLEKQHLRIQHLQSQFGLLDHKHLDHEVAKPARRKRLPEMAQPVDPAHNVSRLHRL
notes: angiopoietin-like protein 4 (ANGPTL4), N-terminal domain, residues 26-184
What does the source list for B1?
inactivation rate constant (ki) of LPL by 100 nM nANGPTL4 during lipolysis of CM/VLDL (ITC), at 10 or 50 mg/ml BSA against 2 mg/ml BSA [1]: ~1.6 fold; Kd (Human serum albumin): 500 ± 51 µM

Which results are given for B2?
Kd (Bovine serum albumin [2]): 12.6 µM; Kd (Bovine serum albumin [3]): 30 to 70 µM

B3: Full-length ANGPTL4 (natural protein)
chain: GPVQSKSPRFASWDEMNVLAHGLLQLGQGLREHAERTRSQLSALERRLSACGSACQGTEGSTDLPLAPESRVDPEVLHSLQTQLKAQNSRIQQLFHKVAQQQRHLEKQHLRIQHLQSQFGLLDHKHLDHEVAKPARRKRLPEMAQPVDPAHNVSRLHRLPRDCQELFQVGERQSGLFEIQPQGSPPFLVNCKMTSDGGWTVIQRRHDGSVDFNRPWEAYKAGFGDPHGEFWLGLEKVHSITGDRNSRLAVQLRDWDGNAELLQFSVHLGGEDTAYSLQLTAPVAGQLGATTVPPSGLSVPFSTWDQDHDLRRDKNCAKSLSGGWWFGTCSHSNLNGQYFRSIPQQRQKLKKGIFWKTWRGRYYPLQATTMLIQPMAAEAAS
How did the residual LPL activity (ITC, human plasma) after 130 min of 200 nM LPL with 1 μM ANGPTL4 in the presence of both heparin and BSA [4] turn out when B3 was run?
Its residual LPL activity (ITC, human plasma) after 130 min of 200 nM LPL with 1 μM ANGPTL4 in the presence of both heparin and BSA is 35%.

And the residual LPL activity (ITC, human plasma) after 130 min of 200 nM LPL with 1 μM ANGPTL4 in the presence of heparin or BSA alone [4]?
The residual LPL activity (ITC, human plasma) after 130 min of 200 nM LPL with 1 μM ANGPTL4 in the presence of heparin or BSA alone was 55%.
